Values of other authors as cited in paper PMC8262464.

Target: TLR2 (Homo sapiens) (UniProt O60603)
Assay: SPR

Chain of UniProt O60603 (O60603 21-588): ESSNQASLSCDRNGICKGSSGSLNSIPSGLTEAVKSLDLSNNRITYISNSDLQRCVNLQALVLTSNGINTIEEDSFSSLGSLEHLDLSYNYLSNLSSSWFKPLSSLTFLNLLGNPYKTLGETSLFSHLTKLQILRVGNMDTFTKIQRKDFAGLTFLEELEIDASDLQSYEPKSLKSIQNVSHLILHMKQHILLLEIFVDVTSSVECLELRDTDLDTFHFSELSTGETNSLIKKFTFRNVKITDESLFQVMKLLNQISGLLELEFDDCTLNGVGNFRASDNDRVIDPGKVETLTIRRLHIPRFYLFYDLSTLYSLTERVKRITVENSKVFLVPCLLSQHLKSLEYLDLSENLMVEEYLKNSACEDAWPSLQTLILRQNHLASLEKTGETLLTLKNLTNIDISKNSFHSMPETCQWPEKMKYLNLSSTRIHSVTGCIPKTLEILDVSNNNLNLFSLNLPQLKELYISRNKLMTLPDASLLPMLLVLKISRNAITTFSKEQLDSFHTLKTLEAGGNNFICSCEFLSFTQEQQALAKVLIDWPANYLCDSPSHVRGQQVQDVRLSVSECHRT

Kd: 32.2 nM
Substance: MMP2 (from UniProt P08253)
